Measured values taken from the Human Domainome abundance scans (Beltran et al. 2025).
± gives the uncertainty stated by the source.

B1: POU domain, class 4, transcription factor 1, residues 266 to 347; numbered along this chain, Q01851 (parent)
chain: RELEAFAERFKQRRIKLGVTQADVGSALANLKIPGVGSLSQSTICRFESLTLSHNNMIALKPILQAWLEEAEGAQREKMNKP

Variants of: B1
Assay: abundance fitness (aPCA) (normalised: wild type 0, dead -1); higher = more abundant; growth selection in yeast, the domain comes from the species named
Details: Homo sapiens

For RELEAFAERFKQRRIKLGVTQADVGSALANLKIPGVGSLSQSTICRFESLTFSHNNMIALKPILQAWLEEAEGAQREKMNKP [L52F], which abundance fitness is on record?
Its abundance fitness is -0.24 ± 0.47.

For RELEAFAERFKQRRIKLGVTQADVGSALANLKIPGVGSLSQSTICRFESLTCSHNNMIALKPILQAWLEEAEGAQREKMNKP [L52C], which abundance fitness is on record?
Its abundance fitness is -0.351 ± 0.079.

Which abundance fitness does the source give for RELEAFAERFKQRRIKLGVTQADVGSALANLKIPGVGSLSQSTICRFESLTDSHNNMIALKPILQAWLEEAEGAQREKMNKP [L52D] here?
Its abundance fitness is -0.229 ± 0.084.

With RELEAFAERFKQRRIKLGVTQADVGSALANLKIPGVGSLSQSTICRFESLTESHNNMIALKPILQAWLEEAEGAQREKMNKP [L52E] as the variant, how does the abundance fitness read?
Its abundance fitness is -0.132 ± 0.052.

Which abundance fitness does the source give for RELEAFAERFKQRRIKLGVTQADVGSALANLKIPGVGSLSQSTICRFESWTLSHNNMIALKPILQAWLEEAEGAQREKMNKP [L50W] here?
Its abundance fitness is -0.233 ± 0.052.

Which abundance fitness does the source give for RELEAFAERFKQRRIKLGVTQADVGSALANLKIPGVGSLSQSTICRFESVTLSHNNMIALKPILQAWLEEAEGAQREKMNKP [L50V] here?
Its abundance fitness is -0.006 ± 0.033.

For RELEAFAERFKQRRIKLGVTQADVGSALANLKIPGVGSLSQSTICRFESQTLSHNNMIALKPILQAWLEEAEGAQREKMNKP [L50Q], which abundance fitness is on record?
The abundance fitness was -0.01 ± 0.056.

Which abundance fitness does the source give for RELEAFAERFKQRRIKLGVTQADVGSALANLKIPGVGSLSQSTICRFESTTLSHNNMIALKPILQAWLEEAEGAQREKMNKP [L50T] here?
The abundance fitness was -0.062 ± 0.039.

Which abundance fitness does the source give for RELEAFAERFKQRRIKLGVTQADVGSALANLKIPGVGSLSQSTICRFESRTLSHNNMIALKPILQAWLEEAEGAQREKMNKP [L50R] here?
The abundance fitness was 0.012 ± 0.036.

For RELEAFAERFKQRRIKLGVTQADVGSALANLKIPGVGSLSQSTICRFESSTLSHNNMIALKPILQAWLEEAEGAQREKMNKP [L50S], which abundance fitness is on record?
The abundance fitness was 0.018 ± 0.033.

Which abundance fitness does the source give for RELEAFAERFKQRRIKLGVTQADVGSALANLKIPGVGSLSQSTICRFESYTLSHNNMIALKPILQAWLEEAEGAQREKMNKP [L50Y] here?
The abundance fitness was 0.008 ± 0.04.

Which abundance fitness does the source give for RELEAFAERFKQRRIKLGVTQADVGSALANLKIPGVGSLSQSTICRFESKTLSHNNMIALKPILQAWLEEAEGAQREKMNKP [L50K] here?
Its abundance fitness is 0.029 ± 0.049.

For RELEAFAERFKQRRIKLGVTQADVGSALANLKIPGVGSLSQSTICRFESMTLSHNNMIALKPILQAWLEEAEGAQREKMNKP [L50M], which abundance fitness is on record?
Its abundance fitness is 0.055 ± 0.045.

Which abundance fitness does the source give for RELEAFAERFKQRRIKLGVTQADVGSALANLKIPGVGSLSQSTICRFESNTLSHNNMIALKPILQAWLEEAEGAQREKMNKP [L50N] here?
The abundance fitness was -0.032 ± 0.04.

Which abundance fitness does the source give for RELEAFAERFKQRRIKLGVTQADVGSALANLKIPGVGSLSQSTICRFESITLSHNNMIALKPILQAWLEEAEGAQREKMNKP [L50I] here?
The abundance fitness was -0.13 ± 0.043.

Which abundance fitness does the source give for RELEAFAERFKQRRIKLGVTQADVGSALANLKIPGVGSLSQSTICRFESLLLSHNNMIALKPILQAWLEEAEGAQREKMNKP [T51L] here?
Its abundance fitness is -0.022 ± 0.031.

With RELEAFAERFKQRRIKLGVTQADVGSALANLKIPGVGSLSQSTICRFESLWLSHNNMIALKPILQAWLEEAEGAQREKMNKP [T51W] as the variant, how does the abundance fitness read?
Its abundance fitness is -0.487 ± 0.065.

With RELEAFAERFKQRRIKLGVTQADVGSALANLKIPGVGSLSQSTICRFESLMLSHNNMIALKPILQAWLEEAEGAQREKMNKP [T51M] as the variant, how does the abundance fitness read?
Its abundance fitness is -0.004 ± 0.044.

With RELEAFAERFKQRRIKLGVTQADVGSALANLKIPGVGSLSQSTICRFESLFLSHNNMIALKPILQAWLEEAEGAQREKMNKP [T51F] as the variant, how does the abundance fitness read?
Its abundance fitness is -0.406 ± 0.053.

Which abundance fitness does the source give for RELEAFAERFKQRRIKLGVTQADVGSALANLKIPGVGSLSQSTICRFESLILSHNNMIALKPILQAWLEEAEGAQREKMNKP [T51I] here?
The abundance fitness was -0.205 ± 0.041.

Which abundance fitness does the source give for RELEAFAERFKQRRIKLGVTQADVGSALANLKIPGVGSLSQSTICRFESLHLSHNNMIALKPILQAWLEEAEGAQREKMNKP [T51H] here?
The abundance fitness was 0.003 ± 0.036.

With RELEAFAERFKQRRIKLGVTQADVGSALANLKIPGVGSLSQSTICRFESLCLSHNNMIALKPILQAWLEEAEGAQREKMNKP [T51C] as the variant, how does the abundance fitness read?
The abundance fitness was -0.106 ± 0.048.

For RELEAFAERFKQRRIKLGVTQADVGSALANLKIPGVGSLSQSTICRFESLALSHNNMIALKPILQAWLEEAEGAQREKMNKP [T51A], which abundance fitness is on record?
Its abundance fitness is -0.015 ± 0.034.

For RELEAFAERFKQRRIKLGVTQADVGSALANLKIPGVGSLSQSTICRFESLVLSHNNMIALKPILQAWLEEAEGAQREKMNKP [T51V], which abundance fitness is on record?
The abundance fitness was -0.105 ± 0.038.

Which abundance fitness does the source give for RELEAFAERFKQRRIKLGVTQADVGSALANLKIPGVGSLSQSTICRFESLDLSHNNMIALKPILQAWLEEAEGAQREKMNKP [T51D] here?
Its abundance fitness is 0.034 ± 0.046.

For RELEAFAERFKQRRIKLGVTQADVGSALANLKIPGVGSLSQSTICRFESLRLSHNNMIALKPILQAWLEEAEGAQREKMNKP [T51R], which abundance fitness is on record?
Its abundance fitness is -0.017 ± 0.035.

For RELEAFAERFKQRRIKLGVTQADVGSALANLKIPGVGSLSQSTICRFESLQLSHNNMIALKPILQAWLEEAEGAQREKMNKP [T51Q], which abundance fitness is on record?
The abundance fitness was 0.054 ± 0.038.

With RELEAFAERFKQRRIKLGVTQADVGSALANLKIPGVGSLSQSTICRFESLELSHNNMIALKPILQAWLEEAEGAQREKMNKP [T51E] as the variant, how does the abundance fitness read?
Its abundance fitness is 0.032 ± 0.07.

Which abundance fitness does the source give for RELEAFAERFKQRRIKLGVTQADVGSALANLKIPGVGSLSQSTICRFESLGLSHNNMIALKPILQAWLEEAEGAQREKMNKP [T51G] here?
Its abundance fitness is -0.021 ± 0.039.

With RELEAFAERFKQRRIKLGVTQADVGSALANLKIPGVGSLSQSTICRFESLPLSHNNMIALKPILQAWLEEAEGAQREKMNKP [T51P] as the variant, how does the abundance fitness read?
The abundance fitness was -0.877 ± 0.085.

Which abundance fitness does the source give for RELEAFAERFKQRRIKLGVTQADVGSALANLKIPGVGSLSQSTICRFESLYLSHNNMIALKPILQAWLEEAEGAQREKMNKP [T51Y] here?
Its abundance fitness is -0.368 ± 0.05.

For RELEAFAERFKQRRIKLGVTQADVGSALANLKIPGVGSLSQSTICRFESLKLSHNNMIALKPILQAWLEEAEGAQREKMNKP [T51K], which abundance fitness is on record?
Its abundance fitness is 0.015 ± 0.044.

For RELEAFAERFKQRRIKLGVTQADVGSALANLKIPGVGSLSQSTICRFESLNLSHNNMIALKPILQAWLEEAEGAQREKMNKP [T51N], which abundance fitness is on record?
Its abundance fitness is -0.042 ± 0.04.

With RELEAFAERFKQRRIKLGVTQADVGSALANLKIPGVGSLSQSTICRFESLSLSHNNMIALKPILQAWLEEAEGAQREKMNKP [T51S] as the variant, how does the abundance fitness read?
Its abundance fitness is 0.018 ± 0.031.
